{"source": "patent US6491893B1", "about": "“Compounds for targeting and imaging infection and inflammation” (Biostream, Inc., priority 1999, dated 2002)", "molecules": {"B1": {"name": "G-CSF: full length protein, polypeptide or peptide corresponding to natural G-CSF that binds to a CSF receptor (protein, UniProt P09919 31-207, looked up)", "Granulocyte …": "TPLGPASSLPQSFLLKCLEQVRKIQGDGAALQEKLVSECATYKLCHPEELVLLGHSLGIPWAPLSSCPSQALQLAGCLSQLHSGLFLYQGLLQALEGISPELGPTLDTLQLDVADFATTIWQQMEELGMAPALQPTQGAMPAFASAFQRRAGGVLVASHLQSFLEVSYRVLRHLAQP"}, "B2": {"name": "In-111-DTPA-GCSF: G-CSF conjugated with diethylenetriaminepentacetic acid (DTPA) via the active ester and labeled with In-111 (conjugate, UniProt P09919 31-207, looked up)", "Granulocyte …": "B1 Granulocyte …", "modifications": "DTPA conjugate labeled with In-111"}}, "key": {"[1]": {"conditions": "cited from earlier work"}, "[2]": {"conditions": "cited from earlier work", "remark": "listed apart in the source"}, "[3]": {"tested_on": "intramuscular bacterial infections (E. coli, left posterior thigh)", "format": "in vivo, New Zealand white rabbits", "conditions": "from biodistribution data", "description": "(§1) In order to label G-CSF with radioindium (^111In), G-CSF was conjugated with diethylenetriaminepentacetic acid (DTPA) via the active ester. DTPA conjugated G-CSF was labeled with In-111 and injected into rabbits bearing intramuscular bacterial infections. Two New Zealand white rabbits weighing approximately 2-3 kg were injected in their left posterior thigh with a 0.5 ml suspension of ˜10^9 E. coli for infection imaging and biodistribution studies. Animals were injected with In-111-DTPA-G-CSF at 24 hr after bacterial injection, when the animals were judged to have moderate infections by palpation.\n(§2) At 4 and 18 hours following injection of the In-111-DTPA-G-CSF, the animals were anesthetized with ketamine/xylazine (15.0 and 1.5 mg/kg) and scintigrams were acquired using a large field of view gamma camera equipped with a parallel hole medium energy collimator. Regions-of-interest (ROI's) were drawn over the area of infection and the contralateral normal muscle and target-to-background (T/B) ratios were calculated. After acquiring the final images, the animals were sacrificed with an over dose of sodium pentobarbital and biodistribution was determined. For comparison with the imaging results, infected to normal muscle and pus to normal muscle ratios were calculated from biodistribution data."}, "[4]": {"tested_on": "intramuscular bacterial infections (E. coli, left posterior thigh)", "assay": "Gamma camera imaging, T/B ratios from ROI analysis of scintigrams (Example 1, Table 1)", "format": "in vivo, New Zealand white rabbits", "conditions": "for average Target:Background (T/B) ratio, gamma camera images: Average of 2 rabbits", "description": "as §1\nas §2, with “[…],” for “At 4 and 18 hours following injection of the In-111-DTPA-G-CSF,”"}, "[5]": {"conditions": "after intravenous administration over 30 min"}, "[6]": {"conditions": "Average, 18 Hours Post Injection"}, "[7]": {"conditions": "Rabbit #1, 18 Hours Post Injection"}, "[8]": {"conditions": "Rabbit #2, 18 Hours Post Injection"}}, "note": "Where two headings read alike, the source gives them in different places.", "data": [{"molecule": "GM-CSF: colony stimulating factor promoting growth of progenitors of several myeloid lines", "values": [{"measurement": "distribution half-life (T sub ½ alpha)", "setting": "[1]; [5]", "result": "5 to 15", "unit": "min"}, {"measurement": "elimination phase (T sub ½ Beta)", "setting": "[1]; [5]", "result": "1 to 9", "unit": "h"}, {"measurement": "time to peak serum concentration", "setting": "[1]; after single subcutaneous bolus injections", "result": "≤ 4", "unit": "h"}, {"measurement": "elimination half-life", "setting": "[1]; single subcutaneous bolus injections, doses of 10 mμ g/kg", "result": 174, "unit": "min"}, {"measurement": "serum concentration achieved", "setting": "[1]; subcutaneous doses of 5-10 mμ g/kg, for 8-24 h", "result": ">= 10 ng/mL"}, {"measurement": "time serum concentrations >=10 ng/mL are achieved", "setting": "[1]; subcutaneous doses of 5-10 mμ g/kg", "result": "8 to 24", "unit": "h"}]}, {"molecule": "B1", "values": [{"measurement": "serum concentration maintained", "setting": "[2]; after doses of 5-10 μg/kg, for up to 16 h", "result": "> 10", "unit": "ng/mL"}, {"measurement": "time serum concentrations of >10 ng/mL are maintained", "setting": "[2]; after doses of 5-10 mμ g/kg", "result": "up to 16 h"}, {"measurement": "time C sub max values are maintained", "setting": "[2]; after short (20-30 min) intravenous infusions", "result": "30 to 60", "unit": "min"}, {"measurement": "estimated terminal half-life", "setting": "[2]; after short intravenous infusions, doses up to 60 μg/kg", "result": "45 to 432", "unit": "min"}, {"measurement": "serum concentration by 24 h", "setting": "[2]; after single subcutaneous injections, by 24 h", "result": "< 10", "unit": "% C sub max"}, {"measurement": "time to peak serum concentration", "setting": "[2]; after single subcutaneous injections", "result": "4 to 6", "unit": "h"}]}, {"molecule": "B2", "values": [{"measurement": "Infected/normal muscle ratio", "setting": "[3]; [6]", "result": 26.24}, {"measurement": "Pus/normal muscle ratio", "setting": "[3]; [6]", "result": 59.16}, {"measurement": "Infected/normal muscle #1 ratio", "setting": "[3]; [7]", "result": 36.89}, {"measurement": "Infected/normal muscle #2 ratio", "setting": "[3]; [7]", "result": 21.54}, {"measurement": "Infected/normal muscle #3 ratio", "setting": "[3]; [7]", "result": 20.11}, {"measurement": "Infected/normal muscle #4 ratio", "setting": "[3]; [7]", "result": 20.95}, {"measurement": "Infected/normal muscle #5 ratio", "setting": "[3]; [7]", "result": 15.63}, {"measurement": "Pus/normal muscle ratio", "setting": "[3]; [7]", "result": 23.56}, {"measurement": "Infected/normal muscle #1 ratio", "setting": "[3]; [8]", "result": 39.21}, {"measurement": "Infected/normal muscle #2 ratio", "setting": "[3]; [8]", "result": 26.17}, {"measurement": "Infected/normal muscle #3 ratio", "setting": "[3]; [8]", "result": 37.03}, {"measurement": "Infected/normal muscle #4 ratio", "setting": "[3]; [8]", "result": 28.44}, {"measurement": "Infected/normal muscle #5 ratio", "setting": "[3]; [8]", "result": 16.42}, {"measurement": "Pus/normal muscle ratio", "setting": "[3]; [8]", "result": 94.76}, {"measurement": "T/B ratio calculated from ROI analysis of scintigrams", "setting": "[4]; 3 hour after injection", "result": 3.567}, {"measurement": "T/B ratio calculated from ROI analysis of scintigrams", "setting": "[4]; 17 hours after injection", "result": 11.87}, {"measurement": "average Target:Background (T/B) ratio, gamma camera images", "setting": "[4]; 4 hours post injection", "result": 3.567}, {"measurement": "average Target:Background (T/B) ratio, gamma camera images", "setting": "[4]; 18 hours post injection", "result": 11.87}, {"measurement": "Infected to normal tissue ratio from gamma camera images", "setting": "[4]; Rabbit #1, 4 hours post injection", "result": 3.359}, {"measurement": "Infected to normal tissue ratio from gamma camera images", "setting": "[4]; Rabbit #1, 18 hours post injection", "result": 8.643}, {"measurement": "Infected to normal tissue ratio from gamma camera images", "setting": "[4]; Rabbit #2, 4 hours post injection", "result": 3.775}, {"measurement": "Infected to normal tissue ratio from gamma camera images", "setting": "[4]; Rabbit #2, 18 hours post injection", "result": 15.10}, {"measurement": "localization at sites of infection (in words)", "setting": "[4]; rabbits with E. coli infection", "result": "effective agent for localizing sites of infection"}]}]}
